Source: patent publication US20130203680A1, “FOLATE CONJUGATES FOR TREATING INFLAMMATION OF THE EYE” (ENDOCYTE, INC., priority 2010, published 2013)

Key:
Pharmacokinetic analysis = test: Pharmacokinetic analysis
Description: Table printed on a drawing sheet, Fig. 15C
Title: Pharmacokinetic analysis
The patent's description of the figure: FIG. 15. Pharmacokinetics of EC0746 and potential metabolites aminopterin (AMT) and AMT hydrazide (EC0470) in Rats. Panel A. Plasma concentrations (nmol/L) of EC0746, AMT and AMT hydrazide following single subcutaneous EC0746 (500 nmol/kg) administration. Panel B. Plasma concentrations (nmol/L) of AMT following single subcutaneous AMT (500 nmol/kg) administration. c. Pharmacokinetic analysis of the results of (a.) and (b.).
First reader's note: Each column is an analyte detected in rat plasma after dosing the test compound named in row 1; values are means of n=3.

RAW264.7 cells = test: XTT cell viability / proliferation of RAW264.7 cells; format: cell-based, murine
Method: (§1) For XTT cell viability and TNF-α inhibition assays, RAW264.7 cells in 96-well plates were treated with vehicle (culture medium) or 10-fold serial dilutions of EC0746 without or with 100-fold excess free folate. After 2 h incubation, the drug-containing media were replaced and the cells were allowed to incubate further for 70 h. Four hours prior to the end of incubation, LPS was added to the treated cells at a final concentration of 100 ng/mL. 100 μL of the culture supernatants were collected for TNF-α analysis using a commercial ELISA kit. See FIG. 2, Panel B. The cell viability was assessed by adding XTT (2,3-bis(2-methoxy-4-nitro-5-sulfo-phenyl)-2H-tetrazolium-5-carboxanilide) to the remaining medium for an additional 4 h following the manufacturer's instructions (Roche Applied Science, Indianapolis, Ind.) See FIG. 2, Panel A. Both results were expressed as % absorbance (minus background) relative to untreated control in triplicates.
(§2) RAW264.7 cells in 96-well plates were treated with vehicle (culture medium) or 10-fold serial dilutions of EC0932 without or with 100-fold excess free folate. […] The cell viability was assessed by adding XTT (2,3-bis(2-methoxy-4-nitro-5-sulfo-phenyl)-2H-tetrazolium-5-carboxanilide) to the remaining medium for an additional 4 h following the manufacturer's instructions (Roche Applied Science, Indianapolis, Ind.). […]

[1] = tested on: LPS-stimulated TNF-α production in RAW264.7 cells; test: LPS-stimulated TNF-α production in RAW264.7 cells (ELISA); format: cell-based, murine; details: 72 h incubations
Method: as §1, §2

[2] = Plasma pharmacokinetics after a single subcutaneous dose of EC0746 or aminopterin
Method: Female Lewis rats with rounded tip jugular vein catheters (Harlan) were fed regular rodent diet and used in this study. The animals were given a single subcutaneous dose of EC0746 at 500 nmol/kg. Whole blood samples (300 μl) were collected from the animals at the following time points: 1 min, 10 min, 30 min, 1 h, 2 h, 3 h, 4 h, and 8 h after injection. The blood samples were placed into anti-coagulant tubes containing 1.7 mg/mL of K3-EDTA and 0.35 mg/mL of N-Maleoyl-beta-alanine (0.35 mg/mL). Plasma samples were obtained by centrifugation for 3 min at ˜2,000 g and stored at −80° C. The amount of EC0746 and its released base drugs (EC0470 & aminopterin) were determined by HPLC using the EC0746 injection solution as the standard (see FIG. 4). […] A similar method was used to determine the plasma pharmacokinetics of aminopterin (see FIG. 5).
Thus, the plasma concentrations of EC0746 and two primary metabolites, AMT and AMT hydrazide, were determined by LC/MS/MS after a single subcutaneous EC0746 administration. […] For comparison, the pharmacokinetics of subcutaneously dosed AMT (500 nmol/kg) was also examined (FIG. 15b).

Serum protein binding = format: in vitro ADME
[3] = Maximum tolerated dose in folate-deficient rats; format: in vivo, rat
Method: Healthy rats were administered a subcutaneous injection of the indicated dose of aminopterin or EC0746 biweekly for 2 weeks; control animals, no treatment, 100 nmole/kg aminopterin, 50 nmole/kg aminopterin, 500 nmole/kg EC0746, or 2000 nmole/kg EC0746. The animals were weighed daily. See FIG. 6, Panels A and B. A dose of […] of aminopterin in folate deficient rats is above the MTD; therefore, the projected MTD of EC0746 would be <0.5 μmol/kg based solely on ˜20% free drug release shown in the previous Example. However, the MTD of EC0746 is actually 2.0 μmol/kg, which is equivalent to 0.4 μmol/kg, or ˜8× higher than the MTD for free aminopterin. On a molar basis for total aminopterin, the MTD is 40× higher.
Since the toxicity of antifolates can be easily masked by rodent diets enriched with folate, healthy rats on a folate-deficient diet (Harlan) were used to determine the maximum-tolerated-dose levels (MTD) of EC0746, AMT and MTX. The animals were given biweekly injections of EC0746, AMT, and MTX for two weeks. The MTD dose was defined as the dose that had caused at least 13-14% weight loss combined with clinical signs of stress and at least one animal in the >MTD dose group needed to be euthanized. Standard hematologic and blood chemistry parameters were examined as needed along with histopathology. The MTDs of EC0746, MTX and AMT were determined to be 2000, 1000, and 50 nmol/kg, respectively. At above the MTD dose level, the main toxicities of EC0746 were similar to those of AMT and MTX, including manifested gastrointestinal distress (diarrhea), swollen muzzle, immunosuppression (bone marrow, thymus), low white-blood-cell count, low platelet count, and infections. […] Overall, EC0746 was approximately 40-fold less toxic than AMT and 2-fold less toxic than MTX on an equimolar basis in these folate-deficient animals; however, its toxicity profile at above MTD levels was not dissimilar from that of AMT and MTX.

[4] = target: folate receptors (FR-β) of CHO cells (Homo sapiens, UniProt P14207); details: 3H-folic acid
[5] = target: folate receptors (FR-α) of KB cells (Homo sapiens, UniProt P15328); details: FR-α positive, 3H-folic acid
DHFR = target: T1, DHFR (Mus musculus, UniProt P00375); test: DHFR activity in lysate of treated RAW264.7 cells; format: cell-based, murine; details: 10 μM, 2-h pulse, 22-h chase
T1 construct: endogenous in cells; host or cells: RAW264.7
T1 sequence (P00375 1-187): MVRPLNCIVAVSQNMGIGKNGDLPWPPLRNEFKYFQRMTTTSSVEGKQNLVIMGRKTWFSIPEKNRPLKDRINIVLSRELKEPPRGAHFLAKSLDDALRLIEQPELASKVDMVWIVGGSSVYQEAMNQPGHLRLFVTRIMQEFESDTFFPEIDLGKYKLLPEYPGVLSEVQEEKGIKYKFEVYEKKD
Method: RAW264.7 cells were treated with vehicle (medium), EC0746 (100 nM) without or with 100-fold excess free folate, aminopterin (AMT, 100 nM), methotrexate (MTX, 100 nM), or excess free folate alone (10 μM). […] At the end of incubation, the cells were lysed and the DHFR activity in cell lysates was measured using a commercial DHFR assay kit (Sigma-Aldrich, Saint Louis, Mo.).

[6] = after single s.c. dose of EC0746 500 nmole/kg
[7] = rat, in vivo, subcutaneous, folate-deficient rats, biweekly injections for two weeks

folate receptors (FR-α) of KB cells, sequence (P15328 25-234): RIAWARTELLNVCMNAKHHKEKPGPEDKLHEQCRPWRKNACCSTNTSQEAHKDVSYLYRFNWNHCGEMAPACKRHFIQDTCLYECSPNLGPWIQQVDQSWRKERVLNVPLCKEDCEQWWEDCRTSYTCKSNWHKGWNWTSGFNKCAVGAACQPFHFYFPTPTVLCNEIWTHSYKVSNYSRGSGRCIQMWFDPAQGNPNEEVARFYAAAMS
folate receptors (FR-β) of CHO cells, sequence (P14207 17-230, species assumed): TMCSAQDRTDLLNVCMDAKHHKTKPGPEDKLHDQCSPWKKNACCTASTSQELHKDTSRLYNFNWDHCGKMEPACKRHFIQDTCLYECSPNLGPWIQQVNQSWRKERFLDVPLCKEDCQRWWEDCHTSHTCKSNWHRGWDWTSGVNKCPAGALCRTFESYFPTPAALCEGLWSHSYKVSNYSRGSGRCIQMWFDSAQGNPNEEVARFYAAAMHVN

With `Nc1nc(N)c2nc(CNc3ccc(C(=O)N[C@@H](CCC(=O)O)C(=O)O)cc3)cnc2n1` [AMT | AMT] the “AUC0-t |” value (Pharmacokinetic analysis) was 61.3 nmol/min/mL, the “CL or CL_F |” value (Pharmacokinetic analysis) was 1.7 mL/min and the “Cmax |” value (Pharmacokinetic analysis) was 601 nM. For the same molecule, the “T1/2(elimination) | min” value (Pharmacokinetic analysis) was 140 min, the “Tmax | min” value (Pharmacokinetic analysis) was 30 min and the “Vz or Vz_F | mL” value (Pharmacokinetic analysis) was 328 mL.

In the case of `NNC(=O)CC[C@H](NC(=O)c1ccc(NCc2cnc3nc(N)nc(N)c3n2)cc1)C(=O)O` [EC0470, aminopterin gamma-hydrazide, reference compound], the “cell proliferation in the XTT assay, potency of potential EC0746 metabolites” value (RAW264.7 cells; 72 h incubations) is reported as “equally potent”, the “LPS-stimulated TNF-α production, potency of potential EC0746 metabolites” value [1] is reported as “equally potent” and the “Tmax of released base drug” value ([2]; released from EC0746 after single s.c. dose 500 nmol/kg) is reported as ~60 min. The “delay of plasma peak from the EC0746 Cmax” value ([2]; released from EC0746 in EC0746-dosed rats) was 30 min.

With `N=c1[nH]c(N)nc2ncc(CNc3ccc(C(=O)N[C@@H](CCC(=O)NNC(=O)OCCSSC[C@H](NC(=O)[C@H](CCC(=O)NC[C@H](O)[C@@H](O)[C@H](O)[C@H](O)CO)NC(=O)[C@H](CCC(=O)O)NC(=O)[C@H](CCC(=O)NC[C@H](O)[C@@H](O)[C@H](O)[C@H](O)CO)NC(=O)[C@H](CCC(=O)O)NC(=O)[C@H](CCC(=O)NC[C@H](O)[C@@H](O)[C@H](O)[C@H](O)CO)NC(=O)CC[C@H](NC(=O)c4ccc(NCc5cnc6nc(N)[nH]c(=O)c6n5)cc4)C(=O)O)C(=O)O)C(=O)O)cc3)nc12` [EC0746] the EC50 (RAW264.7 cells; 2 hour treatment followed by 72 hours in treatment-free medium) was 0.33 nM, the fraction unbound (Serum protein binding) was ~0.54 and the “Area Under Curve for free drug” value [2, 6] was 7.3 nmol·min/mL. The “Cmax for free drug (aminopterin+aminopterin hydrazide)” value [2, 6] was 34 nM, the “Cmax for free drug as share of the total” value [2, 6] was 9.6% and the “time at which Cmax for free drug (aminopterin+aminopterin hydrazide) is reached” value [2, 6] was 60 min. For the same molecule, the half-life ([2]; female, Lewis, rat, in vivo, sc, 500 nmol/kg) was ~35 min, the Cmax ([2]; female, Lewis, rat, in vivo, sc, 500 nmole/kg) was 321 nM and the “bioavailability after subcutaneous administration” value ([2]; rats, s.c.) was “bioavailable”. The “Area Under Curve for EC0746” value ([2]; single s.c. dose of EC0746 500 nmole/kg) was 32.5 nmol·min/mL, the “fold less toxic than AMT on an equimolar basis” value ([3]; folate-deficient animals) was “approximately 40 fold” and the “fold less toxic than MTX on an equimolar basis” value ([3]; folate-deficient animals) was ~2 fold. For the same molecule, the “MTD (free drug equivalent) fold higher than the MTD for free aminopterin” value ([3]; rat, in vivo) was ~8 ×, the “MTD fold higher than aminopterin on a molar basis for total aminopterin” value ([3]; rat, in vivo) was 40 × and the MTD at 2 weeks ([3]; rat, in vivo, sc, s.c. biweekly for 2 weeks) was 2 µmol/kg. The MTD at 2 weeks [3, 7] was 2 µmol/kg, the “gastrointestinal-associated toxicities at MTD dose” value ([3]; rats, at MTD) was “less gastrointestinal-associated toxicities than AMT and MTX” and the “relative folate receptor affinity (folic acid = 1)” value (from here on “relative folate receptor affinity”) [4] was 0.270. For the same molecule, the “relative folate receptor affinity” value [5] was 0.50.

With `Nc1nc(N)c2nc(CNc3ccc(C(=O)N[C@@H](CCC(=O)O)C(=O)O)cc3)cnc2n1` [aminopterin, reference compound] the “elimination half-life of metabolite released from EC0746” value ([2]; female, Lewis, rat, in vivo, sc) was ~117 min, the “delay of plasma peak from the EC0746 Cmax” value ([2]; rat, in vivo) was 30 min and the MTD ([3]; folate-deficient rats, biweekly injections for two weeks) was 50 nmol/kg.

With `Nc1nc2ncc(CNc3ccc(C(=O)N[C@@H](CCC(=O)O)C(=O)O)cc3)nc2c(=O)[nH]1` [folic acid] the “effect of folic acid alone on DHFR activity” value (DHFR) was “did not have any impact”.

In the case of `CN(Cc1cnc2nc(N)nc(N)c2n1)c1ccc(C(=O)N[C@@H](CCC(=O)O)C(=O)O)cc1` [methotrexate, reference compound], the MTD at 2 weeks [3, 7] is reported as 1 µmol/kg, the “relative folate receptor affinity” value [4] is reported as 0.005 and the “relative folate receptor affinity” value [5] is reported as 0.018.
